Assay results taken from the Human Domainome abundance scans (Beltran et al. 2025).
± gives the uncertainty stated by the source.

B1: Androgen receptor, residues 557 to 632; numbered along this chain, P10275 (parent)
chain: QKTCLICGDEASGCHYGALTCGSCKVFFKRAAEGKQKYLCASRNDCTIDKFRRKNCPSCRLRKCYEAGMTLGARKL

Variants of: B1
Experiment: abundance fitness (aPCA) (normalised: wild type 0, dead -1); higher = more abundant; growth selection in yeast, the domain comes from the species named
Conditions: Homo sapiens

Variant | abundance fitness
QKTCLICGDEASGCHYGALNCGSCKVFFKRAAEGKQKYLCASRNDCTIDKFRRKNCPSCRLRKCYEAGMTLGARKL [T20N] | -0.441 ± 0.21
QKTCLICGDEASGCHYGALSCGSCKVFFKRAAEGKQKYLCASRNDCTIDKFRRKNCPSCRLRKCYEAGMTLGARKL [T20S] | 0.047 ± 0.046
QKTCLICGDEASGCHYGALVCGSCKVFFKRAAEGKQKYLCASRNDCTIDKFRRKNCPSCRLRKCYEAGMTLGARKL [T20V] | 0.04 ± 0.038
QKTCLICGDEASGCHYGALPCGSCKVFFKRAAEGKQKYLCASRNDCTIDKFRRKNCPSCRLRKCYEAGMTLGARKL [T20P] | -0.724 ± 0.09
QKTCLICGDEASGCHYGALTIGSCKVFFKRAAEGKQKYLCASRNDCTIDKFRRKNCPSCRLRKCYEAGMTLGARKL [C21I] | -0.777 ± 0.11
QKTCLICGDEASGCHYGALTLGSCKVFFKRAAEGKQKYLCASRNDCTIDKFRRKNCPSCRLRKCYEAGMTLGARKL [C21L] | -0.993 ± 0.16
QKTCLICGDEASGCHYGALTDGSCKVFFKRAAEGKQKYLCASRNDCTIDKFRRKNCPSCRLRKCYEAGMTLGARKL [C21D] | -1.23 ± 0.32
QKTCLICGDEASGCHYGALTPGSCKVFFKRAAEGKQKYLCASRNDCTIDKFRRKNCPSCRLRKCYEAGMTLGARKL [C21P] | -1.21 ± 0.21
QKTCLICGDEASGCHYGALTEGSCKVFFKRAAEGKQKYLCASRNDCTIDKFRRKNCPSCRLRKCYEAGMTLGARKL [C21E] | -0.68 ± 0.12
QKTCLICGDEASGCHYGALTYGSCKVFFKRAAEGKQKYLCASRNDCTIDKFRRKNCPSCRLRKCYEAGMTLGARKL [C21Y] | -0.849 ± 0.2
QKTCLICGDEASGCHYGALTTGSCKVFFKRAAEGKQKYLCASRNDCTIDKFRRKNCPSCRLRKCYEAGMTLGARKL [C21T] | -0.81 ± 0.095
QKTCLICGDEASGCHYGALTAGSCKVFFKRAAEGKQKYLCASRNDCTIDKFRRKNCPSCRLRKCYEAGMTLGARKL [C21A] | -0.732 ± 0.1
QKTCLICGDEASGCHYGALTSGSCKVFFKRAAEGKQKYLCASRNDCTIDKFRRKNCPSCRLRKCYEAGMTLGARKL [C21S] | -1.05 ± 0.15
QKTCLICGDEASGCHYGALTQGSCKVFFKRAAEGKQKYLCASRNDCTIDKFRRKNCPSCRLRKCYEAGMTLGARKL [C21Q] | -0.564 ± 0.13
QKTCLICGDEASGCHYGALTWGSCKVFFKRAAEGKQKYLCASRNDCTIDKFRRKNCPSCRLRKCYEAGMTLGARKL [C21W] | -0.694 ± 0.2
QKTCLICGDEASGCHYGALTHGSCKVFFKRAAEGKQKYLCASRNDCTIDKFRRKNCPSCRLRKCYEAGMTLGARKL [C21H] | -0.602 ± 0.15
QKTCLICGDEASGCHYGALTGGSCKVFFKRAAEGKQKYLCASRNDCTIDKFRRKNCPSCRLRKCYEAGMTLGARKL [C21G] | -0.976 ± 0.099
QKTCLICGDEASGCHYGALTMGSCKVFFKRAAEGKQKYLCASRNDCTIDKFRRKNCPSCRLRKCYEAGMTLGARKL [C21M] | -0.953 ± 0.12

Variant | abundance fitness
QKTCLICGDEASGCHYGALTKGSCKVFFKRAAEGKQKYLCASRNDCTIDKFRRKNCPSCRLRKCYEAGMTLGARKL [C21K] | -0.988 ± 0.17
QKTCLICGDEASGCHYGALTRGSCKVFFKRAAEGKQKYLCASRNDCTIDKFRRKNCPSCRLRKCYEAGMTLGARKL [C21R] | -0.895 ± 0.1
QKTCLICGDEASGCHYGALTVGSCKVFFKRAAEGKQKYLCASRNDCTIDKFRRKNCPSCRLRKCYEAGMTLGARKL [C21V] | -0.754 ± 0.068
QKTCLICGDEASGCHYGALTCGSQKVFFKRAAEGKQKYLCASRNDCTIDKFRRKNCPSCRLRKCYEAGMTLGARKL [C24Q] | -0.932 ± 0.086
QKTCLICGDEASGCHYGALTCGSDKVFFKRAAEGKQKYLCASRNDCTIDKFRRKNCPSCRLRKCYEAGMTLGARKL [C24D] | -0.695 ± 0.064
QKTCLICGDEASGCHYGALTCGSLKVFFKRAAEGKQKYLCASRNDCTIDKFRRKNCPSCRLRKCYEAGMTLGARKL [C24L] | -0.898 ± 0.046
QKTCLICGDEASGCHYGALTCGSGKVFFKRAAEGKQKYLCASRNDCTIDKFRRKNCPSCRLRKCYEAGMTLGARKL [C24G] | -0.907 ± 0.04
QKTCLICGDEASGCHYGALTCGSKKVFFKRAAEGKQKYLCASRNDCTIDKFRRKNCPSCRLRKCYEAGMTLGARKL [C24K] | -0.957 ± 0.079
QKTCLICGDEASGCHYGALTCGSIKVFFKRAAEGKQKYLCASRNDCTIDKFRRKNCPSCRLRKCYEAGMTLGARKL [C24I] | -0.904 ± 0.076
QKTCLICGDEASGCHYGALTCGSMKVFFKRAAEGKQKYLCASRNDCTIDKFRRKNCPSCRLRKCYEAGMTLGARKL [C24M] | -0.964 ± 0.075
QKTCLICGDEASGCHYGALTCGSFKVFFKRAAEGKQKYLCASRNDCTIDKFRRKNCPSCRLRKCYEAGMTLGARKL [C24F] | -1.06 ± 0.099
QKTCLICGDEASGCHYGALTCGSAKVFFKRAAEGKQKYLCASRNDCTIDKFRRKNCPSCRLRKCYEAGMTLGARKL [C24A] | -0.96 ± 0.055
QKTCLICGDEASGCHYGALTCGSPKVFFKRAAEGKQKYLCASRNDCTIDKFRRKNCPSCRLRKCYEAGMTLGARKL [C24P] | -0.853 ± 0.069
QKTCLICGDEASGCHYGALTCGSSKVFFKRAAEGKQKYLCASRNDCTIDKFRRKNCPSCRLRKCYEAGMTLGARKL [C24S] | -1.1 ± 0.072
QKTCLICGDEASGCHYGALTCGSHKVFFKRAAEGKQKYLCASRNDCTIDKFRRKNCPSCRLRKCYEAGMTLGARKL [C24H] | -0.891 ± 0.095
QKTCLICGDEASGCHYGALTCGSTKVFFKRAAEGKQKYLCASRNDCTIDKFRRKNCPSCRLRKCYEAGMTLGARKL [C24T] | -0.902 ± 0.06
QKTCLICGDEASGCHYGALTCGSNKVFFKRAAEGKQKYLCASRNDCTIDKFRRKNCPSCRLRKCYEAGMTLGARKL [C24N] | -0.904 ± 0.094
QKTCLICGDEASGCHYGALTCGSEKVFFKRAAEGKQKYLCASRNDCTIDKFRRKNCPSCRLRKCYEAGMTLGARKL [C24E] | -0.909 ± 0.063
